Reference: patent US20250027068A1

Target: pooled human IgG (human)
Assay: cell-based or functional assay

Binder | Enzyme Activity Endpoint Assay, Fab′2 | Enzyme Activity Endpoint Assay, Fc | Enzyme Activity Endpoint Assay, IgG | Enzyme Activity Endpoint Assay, scIgG
VRT-50 (Fc fusion) VTSVWTKGVTPPTDFIYGEDVLHAPYKAGQGWYDITKTFNGKDNLLCGAATAGNMLHWWFDQNKEQIENYLKKHPEKQKIIFNNQELFDLKAAIDTKDSQLDSKLFEYFKEKAFPYLSTKHLGVFPDHVIDMFINGYRLSLTNHGPTPVKRGSKDKRGGIFDAVFTRGVQSKLLTNRHDFKEKTLKEISDLIKQELTEGKALGISHTYANVRINHVINLWGADFDAEGNLEAIYVTDSDTNASIGMKKYFVGVNSNGKVAISAKEIEEDNIGAQVLGLFTLSTGQDIWNQTNDKTHTCPPCPAPEAAGAPSVFLFPPKPKDTLMISRTPEVTCVVVDVSHEDPEVKFNWYVDGVEVHNAKTKPREEQQNSTYRVVSVLTVLHQDWLNGKEYKCKVSNKALKAPIEKTISKAKGQPREPQVYTLPPSRDELTKNQVSLTCLVKGFYPSDIAVEWESNGQPENNYKTTPPVLDSDGSFFLYSKLTVDKSRWQQGNVFSCSVMHEALHNHYTQKSLSLSPG | 8 ng/µL | 226 ng/µL | 295 ng/µL | 360 ng/µL
VRT-53 (Fc fusion) VTSVWTKGVTPPTNFTYGEDVLHAPYVANQGWYDITKTFNGKDNLLCGAATAGNMLHWWFDQNKEQIENYLKKHPEKQKIIFNNQELFDLKAAIDTKDSQLDSKLFEYFKEKAFPYLSTKHLGVFPDHVIDMFINGYRLSLTNHGPTPVKRGSKDKRGGIFDAVFTRGVQSKLLTNRHDLKNKTLKEISDLIKQELTEGKALGISHTYANVRINHVINLWGADFDAEGNLEAIYVTDSDTNASIGMKKYFVGVNSNGKVAISAKEIEEDNIGAQVLGLFTLSTGQDIWNQTNDKTHTCPPCPAPEAAGAPSVFLFPPKPKDTLMISRTPEVTCVVVDVSHEDPEVKFNWYVDGVEVHNAKTKPREEQQNSTYRVVSVLTVLHQDWLNGKEYKCKVSNKALKAPIEKTISKAKGQPREPQVYTLPPSRDELTKNQVSLTCLVKGFYPSDIAVEWESNGQPENNYKTTPPVLDSDGSFFLYSKLTVDKSRWQQGNVFSCSVMHEALHNHYTQKSLSLSPG | 0 ng/µL | 209 ng/µL | 326 ng/µL | 339 ng/µL
VRT-52 (Fc fusion) VTSVWTKGVTPPTDFIYGEDVLHAPYKAGQGWYDITKAFDGGDNLLCGAATAGNMLHWWFDQNKEQIENYLKKHPEKQKIIFNNQELFDLKAAIDTKDSQTNSELFNYFKEKAFPYLSTKHLGVFPDHVIDMFINGYRLSLTNHGPTPVKRGSKDKRGGIFDAVFTRGVQSKLLTNRHDLKNKTLKEISDLIKQELTEGKALGISHTYANVRINHVINLWGADFDAEGNLEAIYVTDSDTNASIGMKKYFVGVNSNGKVAISAKEIEEDNIGAQVLGLFTLSTGQDIWNQTNDKTHTCPPCPAPEAAGAPSVFLFPPKPKDTLMISRTPEVTCVVVDVSHEDPEVKFNWYVDGVEVHNAKTKPREEQQNSTYRVVSVLTVLHQDWLNGKEYKCKVSNKALKAPIEKTISKAKGQPREPQVYTLPPSRDELTKNQVSLTCLVKGFYPSDIAVEWESNGQPENNYKTTPPVLDSDGSFFLYSKLTVDKSRWQQGNVFSCSVMHEALHNHYTQKSLSLSPG | 6 ng/µL | 213 ng/µL | 238 ng/µL | 311 ng/µL
VRT-54 (Fc fusion) VTSVWTKGVTPPTDFIKGEDVFHAPYKAGQGWYDITKTFNGKDDLLCGAATAGNMLHWWFDQNKEYIEAYLKKHPEKQKIMFGDQELLDVRKAINTKGSQKNSELFNYFRDKAFPNLSARRLGVMPDLVLDMFINGYYLNVTKTQTTDVNRTYQEKDKRGGIFDAVFTRGDQSKLLTSRHDFKEKGLKEISDLIKQELTEGKALGLSHTYANVRINHVINLWGADFDSDGNLKAIYVTDSDSNASIGMKKYFVGVNSAGKVAISAKEIKEDNIGAQVLGLFTLSTGQDIWNQTNDKTHTCPPCPAPEAAGAPSVFLFPPKPKDTLMISRTPEVTCVVVDVSHEDPEVKFNWYVDGVEVHNAKTKPREEQQNSTYRVVSVLTVLHQDWLNGKEYKCKVSNKALKAPIEKTISKAKGQPREPQVYTLPPSRDELTKNQVSLTCLVKGFYPSDIAVEWESNGQPENNYKTTPPVLDSDGSFFLYSKLTVDKSRWQQGNVFSCSVMHEALHNHYTQKSLSLSPG | 0 ng/µL | 129 ng/µL | 672 ng/µL | 150 ng/µL
VRT-57 (Fc fusion) VTSVWTKGVTPPTDFIKGEDVFHAPYKAGQGWYDITKTFNGKDNLLCGAATAGNMLHWWFDQNKEYIEAYLKKHPEKQKIIFNNQELFDLKAAINTKGSQKNSELFNYFRDKAFPNLSARRLGVFPDLVLDMFINGYYLNVTKTQTTDVNRTYQEKDKRGGIFDAVFTRGVQSKLLTSRHDFKEKGLKEISDLIKQELTEGKALGLSHTYANVRINHVINLWGADFDSDGNLKAIYVTDSDSNASIGMKKYFVGVNSAGKVAISAKEIKEDNIGAQVLGLFTLSTGQDIWNQTNDKTHTCPPCPAPEAAGAPSVFLFPPKPKDTLMISRTPEVTCVVVDVSHEDPEVKFNWYVDGVEVHNAKTKPREEQQNSTYRVVSVLTVLHQDWLNGKEYKCKVSNKALKAPIEKTISKAKGQPREPQVYTLPPSRDELTKNQVSLTCLVKGFYPSDIAVEWESNGQPENNYKTTPPVLDSDGSFFLYSKLTVDKSRWQQGNVFSCSVMHEALHNHYTQKSLSLSPG | 0 ng/µL | 97 ng/µL | 903 ng/µL | 27 ng/µL
VRT-56 (Fc fusion) VTSVWTKGVTPPADFTQGEDVFHAPYVANQGWYDITKTFNGKDDLLCGAATAGNMLHWWFDQNKEYIEAYLKKHPEKQKIMFGDQELLDVRKAINTKGSQKNSELFNYFRDKAFPNLSARRLGVMPDLVLDMFINGYYLNVTKTQTTDVNRTYQEKDKRGGIFDAVFTRGDQSKLLTSRHDLKNKGLKEISDLIKQELTEGKALGLSHTYANVRINHVINLWGADFDSDGNLKAIYVTDSDSNASIGMKKYFVGVNSAGKVAISAKEIKEDNIGAQVLGLFTLSTGQDIWNQTNDKTHTCPPCPAPEAAGAPSVFLFPPKPKDTLMISRTPEVTCVVVDVSHEDPEVKFNWYVDGVEVHNAKTKPREEQQNSTYRVVSVLTVLHQDWLNGKEYKCKVSNKALKAPIEKTISKAKGQPREPQVYTLPPSRDELTKNQVSLTCLVKGFYPSDIAVEWESNGQPENNYKTTPPVLDSDGSFFLYSKLTVDKSRWQQGNVFSCSVMHEALHNHYTQKSLSLSPG | 0 ng/µL | 200 ng/µL | 742 ng/µL | 240 ng/µL
VRT-55 (Fc fusion) VTSVWTKGVTPPTDFIKGEDVFHAPYKAGQGWYDITKTFNGKDDLLCGAATAGNMLHWWFDQNKEYIEAYLKKHPEKQKIMFGDQELLDVRKAINTKGSQKNSELFNYFRDKAFPNLSARRLGVMPDLVLDMFINGYYLNVTKTQTTDVNRTYQEKDKRGGIFDAVFTRGDQSKLLTSRHDLKNKGLKEISDLIKQELTEGKALGLSHTYANVRINHVINLWGADFDSDGNLKAIYVTDSDSNASIGMKKYFVGVNSAGKVAISAKEIKEDNIGAQVLGLFTLSTGQDIWNQTNDKTHTCPPCPAPEAAGAPSVFLFPPKPKDTLMISRTPEVTCVVVDVSHEDPEVKFNWYVDGVEVHNAKTKPREEQQNSTYRVVSVLTVLHQDWLNGKEYKCKVSNKALKAPIEKTISKAKGQPREPQVYTLPPSRDELTKNQVSLTCLVKGFYPSDIAVEWESNGQPENNYKTTPPVLDSDGSFFLYSKLTVDKSRWQQGNVFSCSVMHEALHNHYTQKSLSLSPG | 0 ng/µL | 120 ng/µL | 734 ng/µL | 109 ng/µL
VRT-58 (Fc fusion) VTSVWTKGVTPPTDFIKGEDVFHAPYKAGQGWYDITKTFNGKDNLLCGAATAGNMLHWWFDQNKEYIEAYLKKHPEKQKIIFNNQELFDLKAAINTKGSQKNSELFNYFRDKAFPNLSARRLGVFPDLVLDMFINGYYLNVTKTQTTDVNRTYQEKDKRGGIFDAVFTRGVQSKLLTSRHDLKNKGLKEISDLIKQELTEGKALGLSHTYANVRINHVINLWGADFDSDGNLKAIYVTDSDSNASIGMKKYFVGVNSAGKVAISAKEIKEDNIGAQVLGLFTLSTGQDIWNQTNDKTHTCPPCPAPEAAGAPSVFLFPPKPKDTLMISRTPEVTCVVVDVSHEDPEVKFNWYVDGVEVHNAKTKPREEQQNSTYRVVSVLTVLHQDWLNGKEYKCKVSNKALKAPIEKTISKAKGQPREPQVYTLPPSRDELTKNQVSLTCLVKGFYPSDIAVEWESNGQPENNYKTTPPVLDSDGSFFLYSKLTVDKSRWQQGNVFSCSVMHEALHNHYTQKSLSLSPG | 0 ng/µL | 191 ng/µL | 527 ng/µL | 236 ng/µL
VRT-59 (Fc fusion) VTSVWTKGVTPPADFTQGEDVFHAPYVANQGWYDITKTFNGKDNLLCGAATAGNMLHWWFDQNKEYIEAYLKKHPEKQKIIFNNQELFDLKAAINTKGSQKNSELFNYFRDKAFPNLSARRLGVFPDLVLDMFINGYYLNVTKTQTTDVNRTYQEKDKRGGIFDAVFTRGVQSKLLTSRHDLKNKGLKEISDLIKQELTEGKALGLSHTYANVRINHVINLWGADFDSDGNLKAIYVTDSDSNASIGMKKYFVGVNSAGKVAISAKEIKEDNIGAQVLGLFTLSTGQDIWNQTNDKTHTCPPCPAPEAAGAPSVFLFPPKPKDTLMISRTPEVTCVVVDVSHEDPEVKFNWYVDGVEVHNAKTKPREEQQNSTYRVVSVLTVLHQDWLNGKEYKCKVSNKALKAPIEKTISKAKGQPREPQVYTLPPSRDELTKNQVSLTCLVKGFYPSDIAVEWESNGQPENNYKTTPPVLDSDGSFFLYSKLTVDKSRWQQGNVFSCSVMHEALHNHYTQKSLSLSPG | 0 ng/µL | 157 ng/µL | 726 ng/µL | 107 ng/µL
VRT-49 (Fc fusion) VTSVWTKGVTPPTNFTYGEDVLHAPYVANQGWYDITKTFNGKDDLLCGAATAGNMLHWWFDQNKEQIENYLKKHPEKQKINFNGEQMFDVKEAIDTKDSQLDSKLFEYFKEKAFPYLSTKHLGVFPDHVIDMFINGYRLSLTNHGPTPVKRGSKDPRGGIFDAVFTRGDQSKLLTNRHDLKNKTLKEISDLIKQELTEGKALGISHTYANVRINHVINLWGADFDAEGNLEAIYVTDSDSNASIGMKKYFVGVNSNGKVAISAKEIEEDNIGAQVLGLFTLSTGQDIWNQTNDKTHTCPPCPAPEAAGAPSVFLFPPKPKDTLMISRTPEVTCVVVDVSHEDPEVKFNWYVDGVEVHNAKTKPREEQQNSTYRVVSVLTVLHQDWLNGKEYKCKVSNKALKAPIEKTISKAKGQPREPQVYTLPPSRDELTKNQVSLTCLVKGFYPSDIAVEWESNGQPENNYKTTPPVLDSDGSFFLYSKLTVDKSRWQQGNVFSCSVMHEALHNHYTQKSLSLSPG | 135 ng/µL | 291 ng/µL | 157 ng/µL | 131 ng/µL
